Measurements taken from paper PMC4006922, “The Human Adenovirus E4-ORF1 Protein Subverts Discs Large 1 to Mediate Membrane Recruitment and Dysregulation of Phosphatidylinositol 3-Kinase” (PLoS Pathogens, 2014).

Molecular target: T1, purified, catalytically-active recombinant human p85α:p110α heterodimer (human, UniProt P27986 1-724; P42336 1-1068)
T1 construct: human PI3K regulatory subunit p85α; human PI3K catalytic subunit p110α; also called recombinant human PI3K; purified recombinant PI3K protein; source: bought: SignalChem (co-expression in Sf9 cells, >90% pure)
Experiment: pull-down; purified recombinant human PI3K (1 µg) with GST or GST-Ad9 E4-ORF1 on glutathione-sepharose beads; immunoblot with p85α and p110α antibodies
Conditions: both partners purified

T1 sequence (P27986 whole entry, chain 1 of 2): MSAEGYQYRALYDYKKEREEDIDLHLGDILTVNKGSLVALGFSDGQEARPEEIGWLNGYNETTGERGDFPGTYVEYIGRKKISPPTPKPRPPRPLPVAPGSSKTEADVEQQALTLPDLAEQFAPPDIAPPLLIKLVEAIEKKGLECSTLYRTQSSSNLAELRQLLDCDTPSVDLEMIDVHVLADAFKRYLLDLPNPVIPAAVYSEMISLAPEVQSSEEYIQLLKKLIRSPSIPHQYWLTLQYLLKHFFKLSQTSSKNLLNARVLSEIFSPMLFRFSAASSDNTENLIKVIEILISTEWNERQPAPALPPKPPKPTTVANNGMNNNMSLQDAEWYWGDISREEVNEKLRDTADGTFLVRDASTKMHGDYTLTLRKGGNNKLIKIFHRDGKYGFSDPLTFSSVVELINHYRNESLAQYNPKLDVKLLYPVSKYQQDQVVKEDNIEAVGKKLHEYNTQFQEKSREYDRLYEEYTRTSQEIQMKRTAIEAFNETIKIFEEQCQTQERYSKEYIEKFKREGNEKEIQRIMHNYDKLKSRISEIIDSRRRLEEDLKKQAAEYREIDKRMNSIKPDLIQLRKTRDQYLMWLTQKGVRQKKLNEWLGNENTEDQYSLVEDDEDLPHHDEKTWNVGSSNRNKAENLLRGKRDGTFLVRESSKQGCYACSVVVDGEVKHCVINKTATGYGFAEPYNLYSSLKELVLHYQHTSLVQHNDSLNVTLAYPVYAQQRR
T1 sequence (P42336 whole entry, chain 2 of 2): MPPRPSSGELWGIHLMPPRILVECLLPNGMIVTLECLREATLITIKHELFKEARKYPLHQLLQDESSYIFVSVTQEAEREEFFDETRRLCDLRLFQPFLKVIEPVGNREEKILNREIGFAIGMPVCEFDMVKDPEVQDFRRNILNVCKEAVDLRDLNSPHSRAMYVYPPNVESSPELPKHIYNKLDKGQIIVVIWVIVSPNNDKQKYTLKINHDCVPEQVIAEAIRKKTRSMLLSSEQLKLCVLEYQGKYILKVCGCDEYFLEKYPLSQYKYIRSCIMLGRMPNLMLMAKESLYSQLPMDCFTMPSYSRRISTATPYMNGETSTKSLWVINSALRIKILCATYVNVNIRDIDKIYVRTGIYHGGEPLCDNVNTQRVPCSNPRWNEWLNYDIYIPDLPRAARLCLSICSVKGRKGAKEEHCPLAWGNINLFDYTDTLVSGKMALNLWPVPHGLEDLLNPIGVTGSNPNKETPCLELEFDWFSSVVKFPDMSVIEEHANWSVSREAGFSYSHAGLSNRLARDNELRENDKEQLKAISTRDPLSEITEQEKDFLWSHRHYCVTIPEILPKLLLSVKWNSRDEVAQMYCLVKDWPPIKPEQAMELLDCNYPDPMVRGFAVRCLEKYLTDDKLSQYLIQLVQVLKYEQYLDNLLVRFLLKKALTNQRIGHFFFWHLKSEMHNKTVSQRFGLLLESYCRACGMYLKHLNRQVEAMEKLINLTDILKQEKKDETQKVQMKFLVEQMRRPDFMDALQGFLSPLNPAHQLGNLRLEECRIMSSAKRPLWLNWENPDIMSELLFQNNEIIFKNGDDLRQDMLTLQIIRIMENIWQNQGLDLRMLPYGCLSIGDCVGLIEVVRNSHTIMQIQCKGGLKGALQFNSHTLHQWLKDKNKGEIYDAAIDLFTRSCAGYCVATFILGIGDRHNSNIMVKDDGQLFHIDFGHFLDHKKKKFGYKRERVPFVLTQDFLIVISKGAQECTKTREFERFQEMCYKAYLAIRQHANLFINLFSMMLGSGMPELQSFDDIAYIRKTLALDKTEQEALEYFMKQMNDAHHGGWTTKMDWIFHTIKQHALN

B1: GST-Ad9 E4-ORF1 fusion protein (natural protein)
chain: MAESLYAFIDSPGGIAPVQEGTSNRYTFFCPESFHIPPHGVVLLHLKVSVLVPTGYQGRFMALNDYHARDILTQSDVIFAGRRQELTVLLFNHTDRFLYVRKGHPVGTLLLERVIFPSVKIATLV
notes: Human adenovirus type 9 (Ad9) E4-ORF1 protein, wild type; also called GST-E4-ORF1; glutathione S-transferase (GST) fused to Ad9 E4-ORF1; source: bacterially expressed fusion protein (plasmid pGEX-2TK with wt E4-ORF1 cDNA), on glutathione-sepharose beads
binding result: binds
